Assay results from patent US20260373262 (published 2026).

Target: T1, EPHB6 (human, UniProt O15197)
T1 chain: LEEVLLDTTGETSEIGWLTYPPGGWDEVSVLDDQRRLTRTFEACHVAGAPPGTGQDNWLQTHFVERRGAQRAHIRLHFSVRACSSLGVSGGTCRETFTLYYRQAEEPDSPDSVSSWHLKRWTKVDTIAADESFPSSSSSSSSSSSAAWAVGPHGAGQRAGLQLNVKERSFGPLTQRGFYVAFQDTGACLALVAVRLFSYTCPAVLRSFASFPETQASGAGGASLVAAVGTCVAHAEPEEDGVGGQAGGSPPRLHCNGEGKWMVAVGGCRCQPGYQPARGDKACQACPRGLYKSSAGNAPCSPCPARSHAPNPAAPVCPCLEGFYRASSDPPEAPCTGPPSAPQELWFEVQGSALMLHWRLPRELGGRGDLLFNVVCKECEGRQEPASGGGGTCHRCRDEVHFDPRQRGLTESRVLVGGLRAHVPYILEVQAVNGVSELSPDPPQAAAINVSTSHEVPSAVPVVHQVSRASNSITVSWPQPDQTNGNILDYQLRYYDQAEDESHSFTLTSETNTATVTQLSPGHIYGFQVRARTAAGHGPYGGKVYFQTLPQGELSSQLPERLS
Experiment: FACS

EC50: > 300 µg/mL
B1: hLFTT-1 VH4/VL5 (antibody, V domains shown)
VH: QIQLVQSGSELKKPGASVKVSCKASGYTFTTYGMSWVRQAPGQGLKWMGWIYTYSGVPTYADDLTGRFVFSLDTSVSTAYLQISSLKAEDTATYYCARVRDGYYRYAMDYWGRGTLVTVSS
VL: DIQMTQSPSSLSVSVGDRVTITCKASQDINRYIAWYQQQPGKAPKLLIHFTSTLQSGVPSRFSGSGSGTDFTFTISSLQPEDIATYYCLQYDDLRTFGQGTKLEIK
